Measurements reported in patent US20230416365A1 (Hoffmann-La Roche, published 2023).
Substitutions are numbered along the chain they refer to.

T1: N(A2B2)A-avi-His (biotinylated at the avi tag)
T1 construct: also called biotinylated N(A2B2)A-avi-His
T1 chain: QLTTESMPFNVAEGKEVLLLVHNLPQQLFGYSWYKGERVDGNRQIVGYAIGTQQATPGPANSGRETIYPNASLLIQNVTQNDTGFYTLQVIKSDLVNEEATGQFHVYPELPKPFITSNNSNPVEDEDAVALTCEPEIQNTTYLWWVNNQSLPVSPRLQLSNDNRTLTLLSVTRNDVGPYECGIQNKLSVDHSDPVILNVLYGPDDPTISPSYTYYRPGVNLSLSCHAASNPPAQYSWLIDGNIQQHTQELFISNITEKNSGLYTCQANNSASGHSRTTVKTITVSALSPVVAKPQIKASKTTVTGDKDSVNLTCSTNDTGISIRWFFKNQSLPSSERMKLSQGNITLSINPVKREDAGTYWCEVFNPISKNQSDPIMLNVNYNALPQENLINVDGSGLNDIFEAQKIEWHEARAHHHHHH

T2: NA(B2)A-avi-His (biotinylated at the avi tag)
T2 chain: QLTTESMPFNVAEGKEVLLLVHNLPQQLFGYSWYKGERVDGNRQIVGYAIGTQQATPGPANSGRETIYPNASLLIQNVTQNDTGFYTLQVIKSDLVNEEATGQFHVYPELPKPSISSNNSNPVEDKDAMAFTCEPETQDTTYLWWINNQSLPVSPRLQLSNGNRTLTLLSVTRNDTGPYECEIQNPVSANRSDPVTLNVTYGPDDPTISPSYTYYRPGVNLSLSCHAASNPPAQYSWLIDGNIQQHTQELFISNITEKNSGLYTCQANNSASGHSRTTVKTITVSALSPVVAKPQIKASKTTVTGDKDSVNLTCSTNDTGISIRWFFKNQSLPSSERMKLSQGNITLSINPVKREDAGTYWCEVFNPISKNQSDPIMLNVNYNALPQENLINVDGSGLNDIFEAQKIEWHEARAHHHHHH

B1: FAP (4B9) - CD28 (CD28(SA)_Variant 11) 1+1 (bispecific antibody, human IgG1, kappa, L234A L235A)
heavy 1: EIVLTQSPGTLSLSPGERATLSCRASQSVTSSYLAWYQQKPGQAPRLLINVGSRRATGIPDRFSGSGSGTDFTLTISRLEPEDFAVYYCQQGIMLPPTFGQGTKVEIKSSASTKGPSVFPLAPSSKSTSGGTAALGCLVKDYFPEPVTVSWNSGALTSGVHTFPAVLQSSGLYSLSSVVTVPSSSLGTQTYICNVNHKPSNTKVDKKVEPKSCDKTHTCPPCPAPEAAGGPSVFLFPPKPKDTLMISRTPEVTCVVVDVSHEDPEVKFNWYVDGVEVHNAKTKPREEQYNSTYRVVSVLTVLHQDWLNGKEYKCKVSNKALGAPIEKTISKAKGQPREPQVCTLPPSRDELTKNQVSLSCAVKGFYPSDIAVEWESNGQPENNYKTTPPVLDSDGSFFLVSKLTVDKSRWQQGNVFSCSVMHEALHNHYTQKSLSLSP
light 1: EVQLLESGGGLVQPGGSLRLSCAASGFTFSSYAMSWVRQAPGKGLEWVSAIIGSGASTYYADSVKGRFTISRDNSKNTLYLQMNSLRAEDTAVYYCAKGWFGGFNYWGQGTLVTVSSASVAAPSVFIFPPSDEQLKSGTASVVCLLNNFYPREAKVQWKVDNALQSGNSQESVTEQDSKDSTYSLSSTLTLSKADYEKHKVYACEVTHQGLSSPVTKSFNRGEC
heavy 2: not shown
light 2: not shown
notes: huIgG1 PG-LALA CrossFab 1+1; also called P1AE3132
B2: FAP (4B9) - CD28 (CD28(SA)_Variant 12) 1+1 (bispecific antibody, human IgG1, kappa, L234A L235A)
heavy 1: B1 heavy 1
light 1: B1 light 1
heavy 2: not shown
light 2: DIQMTQSPSSLSASVGDRVTITCRASQNIYVWLNWYQQKPGKAPKLLIYKASNLYSGVPSRFSGSRSGTDFTLTISSLQPEDFATYYCQQGQTYPYTFGQGTKLEIKRTVAAPSVFIFPPSDRKLKSGTASVVCLLNNFYPREAKVQWKVDNALQSGNSQESVTEQDSKDSTYSLSSTLTLSKADYEKHKVYACEVTHQGLSSPVTKSFNRGEC
notes: huIgG1 PG-LALA CrossFab 1+1; also called P1AE3133
B3: FAP (4B9) - CD28 (CD28(SA)_Variant 15) 1+1 (bispecific antibody, human IgG1, kappa, L234A L235A)
heavy 1: B1 heavy 1
light 1: B1 light 1
heavy 2: not shown
light 2: not shown
notes: huIgG1 PG-LALA CrossFab 1+1; also called P1AE3134
B4: FAP (4B9) - CD28 (CD28(SA)_Variant 17) 1+1 (bispecific antibody, human IgG1, kappa, L234A L235A)
heavy 1: B1 heavy 1
light 1: B1 light 1
heavy 2: not shown
light 2: not shown
notes: huIgG1 PG-LALA CrossFab 1+1; also called P1AE3136
B5: FAP (4B9)-CD28 (CD28(SA)_Variant 8) 1+1 (bispecific antibody, human IgG1, kappa, L234A L235A)
heavy 1: B1 heavy 1
light 1: B1 light 1
heavy 2: not shown
light 2: not shown
notes: huIgG1 PG-LALA CrossFab 1+1; also called P1AE3131
B6: P001.177 Fab (Fab, V domains shown)
VH: EVQLLESGGGLVQPGGSLRLSCAASGFYFTDYYMNWVRQAPGKGLEWLGFISNKANAYTTEYSASVKGRFTISRDKSKNTLYLQMNSLRAEDTATYYCTRDRGLRFYFDYWGQGTTVTVSS
VL: EIVLTQSPATLSLSPGERATLSCRASSSVTYIHWYQQKPGQAPRSWIYATSNLASGIPARFSGSGSGTDFTLTISSLEPEDFAVYYCQHWSSKPPTFGQGTKLEIK
notes: Fab from E. coli
B7: P006.038 Fab (Fab, V domains shown)
VH: B6 VH with Y28T, S52G, L104I, Y107G
VL: B6 VL with K93V
notes: Fab from E. coli
B8: P005.103 Fab (Fab, V domains shown)
VH: B6 VH with Y28T, S52G, L104I
VL: B6 VL with K93I, P94S
notes: Fab from E. coli
B9: P002.139 Fab (Fab, V domains shown)
VH: B6 VH with Y33A, F50V
VL: B6 VL with R24H
notes: Fab from E. coli
B10: P005.102 Fab (Fab, V domains shown)
VH: B6 VH with Y28T, S52G, L104I, Y107Q
VL: B6 VL with P94S
notes: Fab from E. coli
B11: P005.097 Fab (Fab, V domains shown)
VH: B6 VH with Y28T, S52G, Y107S
VL: B6 VL with K93Q
notes: Fab from E. coli
B12: FAP (4B9) - CD28 (CD28(SA)_Variant 25) 1+1 (bispecific antibody, human IgG1, kappa, L234A L235A)
heavy 1: B1 heavy 1
light 1: B1 light 1
heavy 2: not shown
light 2: not shown
notes: huIgG1 PG-LALA CrossFab 1+1; also called P1AE3139
B13: FAP (4B9) - CD28 (CD28(SA)_Variant 19) 1+1 (bispecific antibody, human IgG1, kappa, L234A L235A)
heavy 1: B1 heavy 1
light 1: B1 light 1
heavy 2: not shown
light 2: not shown
notes: huIgG1 PG-LALA CrossFab 1+1; also called P1AE3137
B14: FAP (4B9) - CD28 (CD28(SA)_Variant 23) 1+1 (bispecific antibody, human IgG1, kappa, L234A L235A)
heavy 1: B1 heavy 1
light 1: B1 light 1
heavy 2: not shown
light 2: not shown
notes: huIgG1 PG-LALA CrossFab 1+1; also called P1AE3138
B15: FAP (4B9) - CD28 (CD28(SA)_Variant 29) 1+1 (bispecific antibody, human IgG1, kappa, L234A L235A)
heavy 1: B1 heavy 1
light 1: B1 light 1
heavy 2: not shown
light 2: not shown
notes: huIgG1 PG-LALA CrossFab 1+1; also called P1AE3141

The binders below were run against T3, human FAP on 3T3-huFAP cells (clone 19) (human, UniProt Q12884 1-760) (assay: flow cytometry on 3T3-huFAP cells, FAP-CD28 1+1 constructs, MFI (PE)).

Binder | binding result
B1 | binds
B2 | binds
B3 | binds
B4 | binds
B5 | binds

Molecular target: T1, N(A2B2)A-avi-His
Test: SPR, ProteOn, antigen on NLC chip, purified Fab as analyte

Binder | Kd | koff | kon
B6 | 0.29 nM | 7.85e-05 s⁻¹ | 267000 M⁻¹ s⁻¹
B7 | 0.25 nM | 5.78e-05 s⁻¹ | 225000 M⁻¹ s⁻¹
B8 | 0.5 nM | 4.99e-05 s⁻¹ | 100000 M⁻¹ s⁻¹
B9 | 0.63 nM | 6.53e-05 s⁻¹ | 105000 M⁻¹ s⁻¹
B10 | 0.29 nM | 3.92e-05 s⁻¹ | 134000 M⁻¹ s⁻¹
B11 | 0.91 nM | 8.54e-05 s⁻¹ | 94000 M⁻¹ s⁻¹

Molecular target: T2, NA(B2)A-avi-His
Test: SPR, ProteOn, 2000 RU NA(B2)A-avi-His on NLC chip, Fab in bacterial supernatant

Binder | binding result
B6 | no binding
B7 | no binding
B8 | no binding
B9 | no binding
B10 | no binding
B11 | no binding

Molecular target: T3, human FAP on 3T3-huFAP cells (clone 19)
Test: flow cytometry on 3T3-huFAP cells, FAP-CD28 1+1 constructs, MFI (PE)
Remark: another data set of the same source

Binder | binding result
B12 | binds
B13 | binds
B14 | binds
B15 | binds

Each binder was assayed against T4, human CD28 on CHO cells (parental cell line CHO-k1 ATCC #CCL-61, modified to stably overexpress human CD28) (human, UniProt P10747 19-220) (assay: binding to CHO cells expressing human CD28 (by the table's title)).
T4 construct: also called hu CD28; CHO-hCD28

Binder | Kd
B1 | 12.5 nM
B2 | 1 nM
B12 | 1.7 nM
B3 | 7.1 nM
B4 | 3.7 nM
B5 | 23.8 nM
B13 | 1.1 nM
B14 | 16.3 nM
B15 | 1.1 nM

Molecular target: T1, N(A2B2)A-avi-His
Test: SPR off-rate, ProteOn, antigen on NLC chip, Fab in bacterial supernatant

Binder | koff
B6 | 9.81e-05 s⁻¹
B7 | 7.41e-05 s⁻¹
B8 | 5.37e-05 s⁻¹
B9 | 6.47e-05 s⁻¹
B10 | 4.24e-05 s⁻¹
B11 | 8.87e-05 s⁻¹

What follows are binders tested against T5, biotinylated huCD28-Fc (dimeric CD28-Fc construct with a monovalent biotinylated avi-tag) (human, UniProt P10747 19-152, biotinylated at the C-terminal avi tag) (assay: SPR, ProteOn XPR36, huCD28-Fc on NLC chip, bispecific as analyte).
T5 construct: not shown: hum IgG1 Fc fragment with hole and PG-LALA mutations; hum IgG1 Fc fragment with knob and PG-LALA mutations

Binder | Kd | koff | kon
B1 | 12.5 nM | 0.00287 s⁻¹ | 230000 M⁻¹ s⁻¹
B2 | 1 nM | 0.000267 s⁻¹ | 261000 M⁻¹ s⁻¹
B12 | 1.7 nM | 0.000396 s⁻¹ | 238000 M⁻¹ s⁻¹
B3 | 7.1 nM | 0.00184 s⁻¹ | 259000 M⁻¹ s⁻¹
B4 | 3.7 nM | 0.00125 s⁻¹ | 338000 M⁻¹ s⁻¹
B5 | 23.8 nM | 0.00521 s⁻¹ | 219000 M⁻¹ s⁻¹
B13 | 1.1 nM | 0.000304 s⁻¹ | 280000 M⁻¹ s⁻¹
B14 | 16.3 nM | 0.00342 s⁻¹ | 211000 M⁻¹ s⁻¹
B15 | 1.1 nM | 0.000307 s⁻¹ | 272000 M⁻¹ s⁻¹
